Measured values: patent US8796209B2, “Compositions and methods related to anti-FGF agents” (The Regents of the University of California, priority 2005, dated 2014)
Positions count from the first letter of the chain named. One block for each molecule: values may come before it.

Key:
[1] = tested on: FRS2α; test: FRS2 phosphorylation, western blot; assay type: cell-based; conditions: mouse fibroblasts
Protocol: The same cell lysates as described above were analyzed by western blotting with anti-phospho FRS2 or anti-FRS2, where; 1: Wild type; 2: R50E; 3: 4xE; 4: 3xA; 5: None; and 6: FBS.
This experiment tested how the FGF1 mutations affect phosphorylation of FRS2α.

[2] = tested on: Balb 3T3 cells; test: DNA synthesis by BrdU incorporation; assay type: cell-based, mouse; conditions: for effect of the mutation on FGF-1 induced BrdU incorporation: 5 ng/ml, 5 μg/ml heparin, 24 h; for DNA synthesis: phenotype of FGF-1 mutants, Table 2
Protocol: Balb 3T3 cells were plated on cover slips in 6-well culture plates, serum starved (DMEM, 0.4% fetal calf serum) for 48 h, and stimulated with 5 ng/ml wild-type and mutant FGF-1s in the presence of 5 μg/ml heparin for 24 h. BrdU was added to the medium for the last 6 h of the incubation. Cells were fixed and incubated with anti BrdU antibody. BrdU incorporated cells were stained with DAB. The mean value of BrdU positive cells from wild type-treated culture was set to 100%, and the corresponding results from mutant-treated cultures were scaled accordingly. Results are shown as means±S.D. Asterisks indicate significant differences (p<0.05) compared with wild type treatment.
DNA synthesis was measured by BrdU incorporation. Balb 3T3 cells were plated on sterile cover slips in 6-well culture plates and serum starved in DMEM supplemented with 0.4% fetal calf serum for 48 h, and stimulated with 5 ng/ml wild type and mutant FGF-1s for 24 h in the presence and absence of 5 μg/ml heparin. BrdU (10 μg/ml) was added to the medium for the last 6 h of the incubation. Cells were then fixed with 70% ethanol and incubated with 2N HCI. After the medium was neutralized with 0.1 M borate buffer (pH 8.5), the cells were incubated with anti-BrdU antibody (BD PharMingen, San Diego, Calif.). BrdU incorporated cells were stained with HRP conjugated secondary antibody (Biorad) and metal enhanced diaminobenzidine substrate kit (Pierce, Rockford, Ill.). Diaminobenzidine positive and negative cells were counted from the digital images of three independent fields.

[3] = tested on: Balb 3T3 cells; test: Chemotaxis assay (Transwell); assay type: cell-based, mouse; conditions: for effect of the mutation on FGF-1-induced chemotaxis: 5 ng/ml, 24 h; for Chemotaxis: phenotype of FGF-1 mutants, Table 2
Protocol: The bottom of the polycarbonate filter of the Transwell apparatus was coated with 10 μg/ml of fibronectin. The lower chamber contained 600 μI of serum-free DMEM containing 5 ng/ml wild-type or mutants FGF-1. Balb 3T3 cells (10^5 cells/filter) were plated on filter and incubated 37° C. for 24 h, and cells were stained with crystal violet. Cells that migrated to the bottom side of the membrane were counted. Results are expressed as means of the number of migrated cells in 2 fields.
A polycarbonate filter of 8 μm pore size of the Transwell insert was coated with 10 μg/ml of fibronectin (Sigma) overnight at 4° C. After washing, the insert was placed into a 24-well cell culture plate, and the lower portion of the plate was filled with 600 μl of serum-free DMEM containing 5 ng/ml wild type or mutant FGF-1. Balb 3T3 cells (10^5 cells/filter) were plated on filter and incubated 37° C. for 24 h, and cells were visualized by crystal violet staining (0.5% crystal violet in 50 mM Borate, pH 9.0, and 2% ethanol). The uncoated side of each filter was wiped with a cotton swab to remove cells that had not migrated through the filter. Migrated cells were counted from the digital images of stained cells. Determining the mean number of cells counted per field. Results are expressed as means±SD of the relative cell number with non-stimulated cells set as 100).

[4] = target: T1, FGFR1 D2D3 fragment (Homo sapiens, UniProt P11362); test: Competition with biotinylated FGF-1 for immobilized FGF receptor D2D3 fragments; assay type: binding; conditions: for effect of the mutation on binding of the FGFR1 D2D3 fragment: competition with 1 μg/ml biotinylated FGF-1; for FGFR binding: phenotype of FGF-1 mutants, Table 2
T1 construct: A DNA fragment encoding amino acid residues 140 to 365 of the immunoglobulin-like domains D2 and D3 of FGFR; made in house
T1 sequence (P11362 140-365): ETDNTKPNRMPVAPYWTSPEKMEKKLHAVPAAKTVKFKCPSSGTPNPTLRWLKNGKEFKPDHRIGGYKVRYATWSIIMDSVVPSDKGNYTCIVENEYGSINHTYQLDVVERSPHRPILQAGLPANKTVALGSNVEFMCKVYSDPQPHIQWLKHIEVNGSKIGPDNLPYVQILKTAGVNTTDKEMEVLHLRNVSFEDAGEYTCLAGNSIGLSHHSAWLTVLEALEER
Protocol: One μg/mi biotinylated FGF-1 and increasing concentrations of unlabelled FGF-1 or FGF-1 mutants were incubated for 1 h at RT with immobilized FGF receptor D2D3 fragments. Then the plate was washed and the bound biotinylated FGF were measured using an avidin conjugated HRP. Unlabeled wild-type (diamond) FGF-1, the R50E (square), 4xE (circle), and 3xA (triangle) FGF-1 mutants were used.
A DNA fragment encoding amino acid residues 140 to 365 of the immunoglobulin-like domains D2 and D3 of FGFR was amplified by PCR with the full length human FGFR1 cDNA in the pcDNA3 (gift from Ann Hanneken, the Scripps Research Institute, La Jolla, Calif.) as a template. A Bam HI restriction site was introduced at the 5′ end, Xho I site at the 3′ end of the cDNA fragment with the following primers: 5′-[…]-3′ (SEQ ID NO:5), 5′-[…]-3′ (SEQ ID NO:6). The resulting cDNA fragment was subcloned into the Bam HI/Xho I sites of the vector pET21a, and transformed into BL21 (DE3).
The protein was expressed as an insoluble protein, refolded as described (Plotnikov et al., 2000). The refolded protein was purified by affinity chromatography using the FGF-1 coupled to CNBr-activated Sepharose (Amersham Pharmacia Biotech) as an affinity matrix. FGF-1-Sepharose was incubated with crude refolded proteins 16 h at 4° C. After binding, the affinity matrix was washed with buffer containing 100 mM NaCl and 50 mM Tris (pH 7.4); and eluted with 1.2M NaCl, and 50 mM Tris (pH 7.4).

[5] = Heparin binding assay (heparin sepharose column, NaCl step elution); conditions: for Heparin binding: phenotype of FGF-1 mutants, Table 2
Protocol: (§1) Partially purified wt and mutant FGF1 in 100 mM NaCl and 50 mM Tris (pH 7.4) were applied to a heparin sepharose column (1 ml bed volume). The column was washed with the same buffer and bound proteins were eluted with a stepwise increase in NaCl concentration from 0.1 to 1.2 M. Fractions were analyzed by SDS-polyacrylamide gradient gel electrophoresis. Proteins were visualized by Coomassie Brilliant Blue staining.
as §1, with “Wild type” for “Partially purified wt”, “FGF-1” for “FGF1”, “Tris/HCI” for “Tris”, “to” for “to a”, “with” for “with the”, “buffer,” for “buffer”

effect of the mutation on binding of the FGFR1 D2D3 fragment [4]: did not block
FGFR binding [4]: Normal
effect of the mutation on heparin binding to FGF-1 [5]: did not
Heparin binding [5]: Normal
Molecule: R50E: FGF-1 mutant with the Arg-50 to Glu (R50E) mutation
FRS2α phosphorylation [1]: abolished
effect of the mutation on FGF-1 induced BrdU incorporation [2]: significantly blocked
DNA synthesis [2]: Low
effect of the mutation on FGF-1-induced chemotaxis [3]: blocked
Chemotaxis [3]: Low

effect of the mutation on binding of the FGFR1 D2D3 fragment [4]: effectively blocked
FGFR binding [4]: Low
effect of the mutation on heparin binding to FGF-1 [5]: did not
Heparin binding [5]: Normal
B2: 3xA: FGF-1 mutant, three residues in the FGFR binding site (Glu102/Tyr109/Asn110) to Ala (protein)
chain: FNLPPGNYKKPKLLYCSNGGHFLRILPDGTVDGTRDRSDQHIQLQLSAESVGEVYIKSTETGQYLAMDTDGLLYGSQTPNEECLFLARLEENHAATYISKKHAEKNWFVGLKKNGSCKRGPRTHYGQKAILFLPLPVSSD
FRS2α phosphorylation [1]: abolished
effect of the mutation on FGF-1 induced BrdU incorporation [2]: also blocked
DNA synthesis [2]: Low
Chemotaxis [3]: Low

Continued, molecule first:

Molecule: Wild type: human FGF-1 (acidic FGF), wild type, expressed in E. coli
FRS2α phosphorylation [1]: induced
DNA synthesis [2]: Normal
Chemotaxis [3]: Normal
FGFR binding [4]: Normal
Heparin binding [5]: Normal

B1: 4xE: FGF-1 mutant, Lys127/Lys128/Lys133/Arg134 simultaneously to Glu (protein)
chain: B2 chain with A87E, A94Y, A95N, K112E, K113E, K118E, R119E
FRS2α phosphorylation [1]: abolished
effect of the mutation on FGF-1 induced BrdU incorporation [2]: significantly blocked
DNA synthesis [2]: Low
effect of the mutation on FGF-1-induced chemotaxis [3]: blocked
Chemotaxis [3]: Low
effect of the mutation on binding of the FGFR1 D2D3 fragment [4]: did not block
FGFR binding [4]: Normal
effect of the mutation on heparin binding to FGF-1 [5]: completely blocked
Heparin binding [5]: Low
